Patent publication US20060233822A1 (YANG SHENG TANG, published 2006)
Residue numbers refer to the chain shown, from its start.

Tests used:
[1] = molecular target: T1, NE2 mutant 601LI (hepatitis E virus, UniProt P29326 394-600); assay: WB
T1 chain: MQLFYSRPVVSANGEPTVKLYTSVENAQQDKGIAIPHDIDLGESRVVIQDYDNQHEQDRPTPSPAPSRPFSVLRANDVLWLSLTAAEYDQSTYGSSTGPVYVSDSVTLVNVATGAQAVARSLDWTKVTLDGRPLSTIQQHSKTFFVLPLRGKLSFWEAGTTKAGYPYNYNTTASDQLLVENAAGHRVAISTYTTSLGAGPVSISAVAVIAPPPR

[2] = molecular target: T2, NE2 mutant 601LP (hepatitis E virus, UniProt P29326 394-600); assay: WB
T2 construct: position counted on HEV ORF2
T2 chain: T1 chain with I209P

[3] = molecular target: T3, NE2 mutant 601LG (hepatitis E virus, UniProt P29326 394-600); assay: WB
T3 construct: position counted on HEV ORF2
T3 chain: T1 chain with I209G

[4] = molecular target: T4, NE2 mutant 601LC (hepatitis E virus, UniProt P29326 394-600); assay: WB
T4 construct: position counted on HEV ORF2
T4 chain: T1 chain with I209C

[5] = molecular target: T5, NE2 mutant 601LE (hepatitis E virus, UniProt P29326 394-600); assay: WB
T5 construct: position counted on HEV ORF2
T5 chain: T1 chain with I209E

[6] = molecular target: T6, NE2 mutant 601LQ (hepatitis E virus, UniProt P29326 394-600); assay: WB
T6 construct: position counted on HEV ORF2
T6 chain: T1 chain with I209Q

[7] = molecular target: T7, NE2 mutant 601LH (hepatitis E virus, UniProt P29326 394-600); assay: Western blot of NE2 mutant proteins with monoclonal antibody 16D7
T7 construct: position counted on HEV ORF2
T7 chain: T1 chain with I209H

[8] = molecular target: T8, NE2 mutant 597AE (hepatitis E virus, UniProt P29326 394-603); assay: as above
T8 construct: position counted on HEV ORF2
T8 chain: T1 chain with A205E, I209L

[9] = molecular target: T9, NE2 mutant 600VE (hepatitis E virus, UniProt P29326 394-599); assay: as above
T9 construct: position counted on HEV ORF2
T9 chain: T1 chain with V208E, I209L

[10] = molecular target: T10, NE2 mutant 602AE (hepatitis E virus, UniProt P29326 394-601); assay: as above
T10 construct: position counted on HEV ORF2
T10 chain: T1 chain with I209L, A210E

Measured: binding result

B1: monoclonal antibody 16D7 (antibody, V domains shown)
VH: EVQLQQSGPELVKPGASVKMSCKASGYKFTSYVMHWVKQKPGQGLEWIGYINPSNDNIKYNEKFKGKAILTLDKSSSTAYMAFSSLTSEDSAVYYCATLTGVDYWGQGTTLTVSS
VL: DVVMTQTPLSLSVTIGQPASISCKSSQSLLYRNGKIYLNWLQQRPGQAPKHLMSQVSKLDPGIPDRFSGSGSETDFTLKISRVEAEDLGVYYCLQGTHYPYTFGGGTKLEIKR
notes: also called MAb 16D7; HRP-16D7
binds: [1] | [2] | [3] | [4] | [5] | [6] | [7] | [8] | [9] | [10]
